Experimental data from publication PMC4691841.

Legend:
Test in all cases: ITC
H3(1-10)R2me2a peptide = H3(1-10)R2me2a peptide (UniProt P68431)
H3(1-15)K4me3 peptide = H3(1-15)K4me3 peptide (UniProt P68431)
H3(1-15)T3ph peptide = H3(1-15)T3ph peptide (UniProt P68431)
histone H3(1-10) peptide = histone H3(1-10) peptide (UniProt P68431)

UHRF1 PHD finger (PHD_(UHRF1)), sequence (Q96T88 298-367): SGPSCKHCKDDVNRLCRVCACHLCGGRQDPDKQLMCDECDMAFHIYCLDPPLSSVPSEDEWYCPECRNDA

| Kd (H3(1-10)R2me2a peptide) | Kd (H3(1-15)K4me3 peptide) | Kd (H3(1-15)T3ph peptide) | Kd (histone H3(1-10) peptide) | Substance |
| --- | --- | --- | --- | --- |
| 44.9 µM | 7.3 µM | > 500 µM | – | UHRF1 PHD finger (PHD_(UHRF1)) (from UniProt Q96T88-2 311-380) (domain or fragment) |
| – | – | – | 47 µM | PHD_(UHRF1) D350A mutant (from UniProt Q96T88-2 311-380) (domain or fragment) |
| – | – | – | 95 µM | PHD_(UHRF1) D347A mutant (from UniProt Q96T88-2 311-380) (domain or fragment) |
